Results taken from patent publication US20210198347A1 (Chugai, published 2021).
Values belong to the binder of their own block, whether it stands above or below them.

Target: T1, recombinant human C1r2s2 Flag/His tetramer (human, UniProt P09871 16-688; P00736 18-705)
T1 construct: whole entries named; also called hc1r2s2; rC1r2s2
T1 chain 1: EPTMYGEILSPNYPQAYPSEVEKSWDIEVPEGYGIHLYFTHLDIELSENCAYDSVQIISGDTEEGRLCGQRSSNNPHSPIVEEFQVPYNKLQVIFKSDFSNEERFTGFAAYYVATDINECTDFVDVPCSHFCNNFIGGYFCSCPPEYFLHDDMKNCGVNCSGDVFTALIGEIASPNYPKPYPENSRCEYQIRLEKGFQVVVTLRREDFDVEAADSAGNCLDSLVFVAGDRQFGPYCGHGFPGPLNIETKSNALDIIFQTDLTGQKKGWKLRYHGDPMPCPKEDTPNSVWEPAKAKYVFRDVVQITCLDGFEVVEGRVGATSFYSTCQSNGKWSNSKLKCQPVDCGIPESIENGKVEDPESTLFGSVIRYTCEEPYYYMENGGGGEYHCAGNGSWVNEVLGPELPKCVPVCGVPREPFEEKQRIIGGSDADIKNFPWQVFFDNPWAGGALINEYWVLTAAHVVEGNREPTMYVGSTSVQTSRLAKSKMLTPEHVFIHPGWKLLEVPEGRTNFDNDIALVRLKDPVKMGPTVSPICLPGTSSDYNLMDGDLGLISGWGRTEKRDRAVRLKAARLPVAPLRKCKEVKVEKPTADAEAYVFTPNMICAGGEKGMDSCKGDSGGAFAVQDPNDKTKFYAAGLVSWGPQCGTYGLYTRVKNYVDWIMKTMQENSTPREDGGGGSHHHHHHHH
T1 chain 2: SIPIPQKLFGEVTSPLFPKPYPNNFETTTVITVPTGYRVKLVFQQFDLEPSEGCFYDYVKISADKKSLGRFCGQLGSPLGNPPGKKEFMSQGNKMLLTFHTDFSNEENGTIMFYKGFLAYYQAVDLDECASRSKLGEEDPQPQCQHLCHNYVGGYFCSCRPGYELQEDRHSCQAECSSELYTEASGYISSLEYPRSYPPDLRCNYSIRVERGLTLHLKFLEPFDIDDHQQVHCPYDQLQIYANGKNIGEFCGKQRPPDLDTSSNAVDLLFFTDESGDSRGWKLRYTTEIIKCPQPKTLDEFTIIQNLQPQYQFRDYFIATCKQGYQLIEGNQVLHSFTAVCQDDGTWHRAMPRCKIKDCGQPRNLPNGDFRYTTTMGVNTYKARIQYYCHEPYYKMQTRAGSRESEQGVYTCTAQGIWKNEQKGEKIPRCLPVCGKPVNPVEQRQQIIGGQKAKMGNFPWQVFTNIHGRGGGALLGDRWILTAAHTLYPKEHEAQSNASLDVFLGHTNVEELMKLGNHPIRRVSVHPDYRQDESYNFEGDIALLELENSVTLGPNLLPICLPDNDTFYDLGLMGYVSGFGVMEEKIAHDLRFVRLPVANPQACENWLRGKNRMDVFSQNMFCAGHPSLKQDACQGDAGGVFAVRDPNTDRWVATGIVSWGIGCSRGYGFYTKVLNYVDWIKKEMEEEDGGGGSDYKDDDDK
Assay: SPR displacement (37 degrees C, pH 7.4): C1r2s2 captured by anti-His, C1q 100 nM pre-bound, antibody 500 nM at 10 micro L/min; time from antibody injection until the antibody sensorgram falls below the buffer sensorgram; competitor native human C1q
Protocol: An anti-His antibody (GE-Healthcare) was immobilized onto all flow cells of a CM4 sensor chip using an amine coupling kit (GE Healthcare). The antibodies, recombinant human C1r2s2 Flag/His tetramer and native human C1q (Comptech A099) were prepared in pH 7.4 buffer (20 mM ACES, 150 mM NaCl, 1.2 mM CaCl₂, 1 mg/mL BSA (IgG-free), 1 mg/mL CMD, 0.05% Tween 20, 0.005% NaN₃, pH 7.4). Recombinant human C1r2s2 Flag/His tetramer was first captured onto the sensor surface by the anti-His antibody (“hc1r2s2” in FIG. 2A). The capture levels were aimed at 200 resonance unit (RU). Native human C1q was injected at 100 nM to have a capture of 200 RU (“hc1q” in FIG. 2A), followed by antibody injection at 500 nM at 10 micro L/min for 1200 sec immediately. The sensor surface was regenerated each cycle with 10 mM Glycine-HCl (pH 1.5). For the antibodies with the C1q displacement function, the response unit of Sensorgram 2 (large dotted line; “C1r2s2+C1q+Ab” in FIGS. 2A and 2C) is lower than the response unit in Sensorgram 1 (small dotted line; “C1r2s2+C1q+buffer” in FIGS. 2A and 2C) after the time point where Sensorgrams 1 and 2 cross (“time point of crossover”). Depending on the time when Sensorgram 2 crosses over Sensorgram 1, COS0499 was categorized as a fast displacement variant. […] COS0448 was in the middle of fast displacement and slow displacement.
The time point of crossover is identified by subtraction of the buffer response (Sensorgram 1) from the antibody (Ab) response (Sensorgram 2), and referring to the time point when the differential value changes from positive to negative (Table 4). The time from the start of Ab injection is indicated in Table 4 as “time point of crossover”.

B1: COS0547gg-SG1148 (antibody, human IgG1, kappa, V domains shown)
VH: QSLEESGGRLVTPGTPLTLTCTASGFSLSSYHMDWVRQAPGKGLEWIGIITYTGDTYYATWAKGRFTISKTSSTTVDLKMASLTTEDTATYFCARRQYDAYNVWGPGTLVTVSS
VL: AYDMTQTPASVEVAVGGTVTIKCQASQSINNYLAWYQQKPGQPPKLLIYYASTLASGVPSRFKGSRSGTEFTLTISGVECADAATYYCQHGYYTSSNIDSVFGGGTKVEIKR
Time point of crossover (post-injection): 542 s

B3: COS0499ee-SG1148 (antibody, human IgG1, kappa, V domains shown)
VH: QSLEESGGRLVTPGTPLTLTCTASGFSLSNYNMAWVRQAPGKGLEWIGIIETTTNTYYARWARGRFTISKTSSTTVDLQIASPTTEDTATYFCGRRVSNSHDLWGPGTLVTVSS
VL: AYDMTQTPASVSAAVGGTVTINCQASQTIGGWCAWYQQKPGQPPKLLIYKASTLASGVSSRFKGSGSGTEFALTISDLECDDAATYYCQHGYYTSSTIENTFGGGTKVEIKR
notes: also called COS499; COS499ee(-SG1148)
Time point of crossover (post-injection): 61.9 s

B5: COS0448oo-SG1148 (antibody, human IgG1, kappa, V domains shown)
VH: QSVEESGGRLVTPGTPLTLTCTVSGFSLSNYGMIWVRQAPGEGLEYIGFVSGSGSAYYANWVKGRFTISKTSTTVDLKMTSLTTEDTATYFCARGAYNTDSYSYSLYYGMDLWGPGTLVTVSS
VL: QIVMTQTPASVEVAVGGTVTIKCQASQSIYSYLSWYQQKPGQPPKLLIYGASTLASGVPSRFKGSRSGTEFTLTISDLECADAATYYCQSNYATTTTYGTFGGGTKVEIKR
notes: Rabbit B-cell derived variable regions; also called COS448; COS44800(-SG1148)
Time point of crossover (post-injection): 169 s

The next lines start with the values.

Time point of crossover (post-injection): 764 s
B2: COS0637cc-SG1148 (antibody, human IgG1, kappa, V domains shown)
VH: QSLEESGGRLVTPGTPLTLTCTASGFSLSAYAMNWVRQAPGKGLEWIGLIYGSGSTFYASWAKGRFTISKTSTTVDLKMTSLTTEDTATYFCARGRSVNYNSDFKLWGPGTLVTVSS
VL: QVLTQTPSSVSAAVGGTVTINCQASQSLHDKKNLAWYQHKPGQRPNLLIYGASTLESGVPSRFKGSGSGTEYTLTISDLECDDAAAYYCQGEFSCSSADCNTFGGGTKVEIKR

Time point of crossover (post-injection): 736 s
B4: COS0631gg-SG1148 (antibody, human IgG1, kappa, V domains shown)
VH: QSVEESGGRLVTPGTPLTLTCTVSGFSLSRYSMGWVRQAPGKGLEWIGIIYADGGAYYASWAKGRFTISKTSTTMDLKVTSPTTEDTATYFCARGQFINSNEFFNPWGPGTLVTVSS
VL: QVLTQTASSVSAVVGGTVTINCQASQSLHNNKNLAWYQQKPGQPPRLLIYYASTLASGVSSRFKGSGSGTQFTLTISDLECDDAATYYCAGEFSCSNGDCNAFGGGTKVEIKR
